Assay results: publication PMC11379722

Experiments:
[1] = molecular target: S protein of the SARS-CoV-2 Omicron (B.1.1.529) strain, his-tagged (SARS-CoV-2, Omicron (B.1.1.529) strain) (UniProt P0DTC2); assay: BLI
[2] = molecular target: RBD of the SARS-CoV-2 Delta (B.1.617.2) strain (SARS-CoV-2, Delta (B.1.617.2) strain) (UniProt P0DTC2); assay: ELISA

Substance	fold increase in binding affinity (BLI) against wild-type CR3022 [1]	EC50 [2]	fold lower ELISA EC50 than wild-type CR3022 [2]
CR3022 SH100D+SH103Y+SL33R triple mutant (IgG1 format) (antibody)	4.1 fold	60 pM	3.4 fold
CR3022 SH100D+SH103Y+IL34W triple mutant (IgG1 format) (antibody)	6.1 fold		
